From patent US20190284293A1 (Bristol-Myers Squibb, published 2019)
Changes are numbered by the printed parent chain. Names may count otherwise. “And” between values parts separate entries of the source, which are not always exact repeats. Identical values can stand only once.

B1: 7A11 (antibody, human IgG1, kappa, V domains shown)
VH: EVQLVESGGGLVQTGRSLRLSCAASGFTFDDYAMHWVRQAPGKGLEWVSDISWNSDIIGYADSVKGRFTISRDNAKNSLYLQMNSLRAEDTALYYCAKDIYGSGSSFFDYWGQGILVTVSS
VL: DIQMTQSPSSLSASVGDRVTITCRASQYISSWLAWYQQKPEKAPKSLIYAASSLQSGVPSRFSGSGSGTDFTLTISSLQPEDFATYYCQQYHSYPPTFGQGTRLEIKR
notes: IgG1za; also called 7A11-1
B2: 10D2 (antibody, human IgG4, kappa, V domains shown)
VH: QVQLVESGGGVVQPGRSLRLSCAASGFTFSNYGLHWVRQAPGKGLEWVAVIRYDGSNKYYADSVKGRFTISRDNSKNTLYLQMSSLRAEDTAVYYCARGGSSWYPDGLDVWGQGTTVTVSS
VL: B1 VL with Y28G, H92N, P96L, Q100G, R103K, L104V
notes: also called 10D2-2
B3: 24H2 (antibody, human IgG4, kappa, V domains shown)
VH: B2 VH with L34M, R52W, S56G, Y80F, S84N, G107A, L108F, V110I, T116M
VL: B1 VL with Y28G, H92N, P96L, Q100G, R103K, L104V
notes: also called 24H2-1
B4: 4D4 (antibody, human IgG2, kappa)
heavy: QVQLVESGGGVVQPGRSLRLSCAASGFTFSNYGMHWVRQAPGKGLEWVAVIWYDESNKYYADSVKGRFTISRDNSKNTLFLQMNSLRAEDTAVYYCARGYNSRWYPDAFDIWGQGTMVTVSSASTKGPSVFPLAPCSRSTSESTAALGCLVKDYFPEPVTVSWNSGALTSGVHTFPAVLQSSGLYSLSSVVTVPSSNFGTQTYTCNVDHKPSNTKVDKTVERKCCVECPPCPAPPVAGPSVFLFPPKPKDTLMISRTPEVTCVVVDVSHEDPEVQFNWYVDGVEVHNAKTKPREEQFNSTFRVVSVLTVVHQDWLNGKEYKCKVSNKGLPAPIEKTISKTKGQPREPQVYTLPPSREEMTKNQVSLTCLVKGFYPSDIAVEWESNGQPENNYKTTPPMLDSDGSFFLYSKLTVDKSRWQQGNVFSCSVMHEALHNHYTQKSLSLSPGK
light: not shown
notes: IgG2; also called 4D4-1
B5: 5F8 (antibody, human IgG1, kappa, V domains shown)
VH: EVQLVESGGGLVQPGGSLRLSCAASGFTFSSYWMHWVRQAPGKGLVWVSRIISDGSSTGYADSVKGRFTISRDNAKNTLYLQMNSLRAEDTAVYYCAREFSSGWYFDYWGQGTLVTVSS
VL: AIQLTQSPSSLSASVGDRVTITCRASQGISSALAWYQQKPGKAPKLLIYDASSLESGVPSRFSGSGSGTDFTLTISSLQPEDFATYYCQQFSSYPRTFGQGTKVEIKR
notes: IgG1za; VK2 also expressed; also called 5F8-1
B6: 11A6 (antibody, human IgG1, kappa, V domains shown)
VH: EVQLVESGGNLVQPGRSLRLSCAASGFTFDDYAMHWVRQAPGKGLEWVSGISWNNNDIGYADSVKGRFIISRDNAKNSLYLQMNSLRPEDTALYYCVKGYYVILTGLDYWGQGTPVTVSS
VL: B1 VL with Y28G, H92N, P96L, Q100G, R103K, L104V
notes: IgG1za; also called 11A6-1
B7: 4C3 (antibody, human IgG1, kappa, V domains shown)
VH: B6 VH with N10G, N54K, N55S, N56G, D57S, I69T, P88A, P115L
VL: not shown
notes: IgG1za; also called 4C3-1
B8: CD73.11-IgG2-C219S (antibody)
heavy: QVQLVESGGGVVQPGRSLRLSCAASGFTFSNYGMHWVRQAPGKGLEWVAVIWYDESNKYYADSVKGRFTISRDNSKNTLFLQMNSLRAEDTAVYYCARGYNSRWYPDAFDIWGQGTMVTVSSASTKGPSVFPLAPCSRSTSESTAALGCLVKDYFPEPVTVSWNSGALTSGVHTFPAVLQSSGLYSLSSVVTVPSSNFGTQTYTCNVDHKPSNTKVDKTVERKSCVECPPCPAPPVAGPSVFLFPPKPKDTLMISRTPEVTCVVVDVSHEDPEVQFNWYVDGVEVHNAKTKPREEQFNSTFRVVSVLTVVHQDWLNGKEYKCKVSNKGLPAPIEKTISKTKGQPREPQVYTLPPSREEMTKNQVSLTCLVKGFYPSDIAVEWESNGQPENNYKTTPPMLDSDGSFFLYSKLTVDKSRWQQGNVFSCSVMHEALHNHYTQKSLSLSPG
light: not shown
notes: 4D4 variable regions; also called CD73.11-IgG2CS; mAb-CD73.11-Vh-hHC-IgG2-C219S

Molecular target: T1, human CD73 on cells (human, UniProt P21589 27-549)
T1 sequence: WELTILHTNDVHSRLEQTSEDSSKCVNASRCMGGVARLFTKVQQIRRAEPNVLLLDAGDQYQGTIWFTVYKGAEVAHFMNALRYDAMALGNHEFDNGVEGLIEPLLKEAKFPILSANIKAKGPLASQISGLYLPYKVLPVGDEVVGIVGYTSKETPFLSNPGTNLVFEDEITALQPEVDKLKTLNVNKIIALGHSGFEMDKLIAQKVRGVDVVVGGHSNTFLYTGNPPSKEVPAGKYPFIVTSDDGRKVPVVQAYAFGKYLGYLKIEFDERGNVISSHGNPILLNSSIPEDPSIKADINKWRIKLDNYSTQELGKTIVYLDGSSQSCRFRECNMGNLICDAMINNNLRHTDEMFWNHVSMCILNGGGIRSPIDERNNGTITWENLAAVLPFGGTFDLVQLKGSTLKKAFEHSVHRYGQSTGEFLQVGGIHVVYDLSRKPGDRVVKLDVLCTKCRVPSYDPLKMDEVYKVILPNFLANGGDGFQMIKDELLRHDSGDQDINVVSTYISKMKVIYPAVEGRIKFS
Experiment: cell-based or functional assay

First: B1
Second: B3
The “EC50 (nM), high-content internalization assay, Calu6, 2 h” value of the first is 3.2-fold lower: 2.59 nM for the first, 8.2 nM for the second.

B4 was tested, and the “EC50 (nM), high-content internalization assay, Calu6, 2 h” value was 0.38 nM.

Going from B1 to B2, the “Ymax, high-content internalization assay (percent of 100 nM 11F11)” value falls from 50% to 29%.

First: B3
Second: B4
The “Ymax, high-content internalization assay (percent of 100 nM 11F11)” value of the first is lower: 51% for the first, 104% for the second.

Molecular target: T1, human CD73 on cells
Experiment: binding titration on Calu6 cells, average of 2-6 experiments

First: B5
Second: B6
The EC50 of the first is 6.1-fold higher: 11.7 nM for the first, 1.93 nM for the second.

First: B1
Second: B4
The EC50 of the first is 2.3-fold lower: 0.35 nM for the first, 0.82 nM for the second. The first is the more potent here.

Molecular target: T2, N-hCD73-his (N-terminal domain of human CD73, residues 26-336, His tag) (human, UniProt P21589 26-336)
T2 sequence: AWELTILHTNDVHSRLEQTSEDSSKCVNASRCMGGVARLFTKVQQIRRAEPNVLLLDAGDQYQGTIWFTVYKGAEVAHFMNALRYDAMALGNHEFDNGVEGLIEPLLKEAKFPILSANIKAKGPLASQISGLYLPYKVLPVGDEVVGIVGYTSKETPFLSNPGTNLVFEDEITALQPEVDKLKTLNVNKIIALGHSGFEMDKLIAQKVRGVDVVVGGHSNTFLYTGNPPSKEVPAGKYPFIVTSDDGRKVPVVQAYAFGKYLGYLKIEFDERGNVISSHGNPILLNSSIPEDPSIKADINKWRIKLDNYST
Experiment: SPR

Compared with B7, B8 is lower in Kd: 100 to 200 nM for the first, roughly 5 nM for the second. The second binds more tightly here.

B4 was tested, and the Kd was roughly 5 nM.

Molecular target: T1, human CD73 on cells
Experiment: cell-based or functional assay
Remark: another data set of the same source

Going from B5 to B6, the “IC50 (nM), cAMP HTRF assay, Calu-6 with HEK293/A2AR cells” value falls from 13.2 nM to 4.87 nM (2.7-fold).

In the case of B1, the “IC50 (nM), cAMP HTRF assay, Calu-6 with HEK293/A2AR cells” value is reported as 0.95 nM.

First: B5
Second: B6
The “Ymax, cAMP HTRF assay (percent of 100 nM 11F11 control)” value of the first is lower: 80% for the first, 84% for the second.

Going from B1 to B7, the “Ymax, cAMP HTRF assay (percent of 100 nM 11F11 control)” value rises from 45% to 80%.

Molecular target: T2, N-hCD73-his (N-terminal domain of human …)
Experiment: SPR, mAb captured on protein A
Method: For these experiments, protein A (Pierce) was immobilized to a density of 3000-4000 RU on flow cells 1-4 of a CM5 sensor chip (GE Healthcare) using standard ethyl(dimethylaminopropyl) carbodiimide (EDC)/N-hydroxysuccinimide […] chemistry, with ethanolamine blocking, in a running buffer of 0.01 M HEPES pH 7.4, 0.15 M NaCl, 3 mM EDTA, 0.005% v/v tween 20. […] The running buffer for the kinetic experiments was 10 mM sodium phosphate, 130 mM sodium chloride, 0.05% tween 20, pH 7.1. The surfaces were regenerated after each cycle using two 30 s pulses of 10 mM glycine pH 1.5 at a flow rate of 30 μl/min. Sensogram data was double-referenced and then fitted to a 1:1 Langmuir model using Biacore T100 evaluation software v2.0.4, to determine the association rate constant (ka), the dissociation rate constant (kd), and the equilibrium dissociation constant (KD).

Compared with B5, B6 is 3.4-fold higher in Kd: 41 nM for the first, 140 nM for the second. The first binds more tightly here.

Going from B1 to B2, the Kd rises from 0.43 nM to 1.6 nM (3.7-fold). The first binds more tightly here.

B3 gave a Kd of 14 nM.

B5 and B6 are within 1.5-fold of each other in koff: 0.006 s⁻¹ for the first, 0.0076 s⁻¹ for the second.

First: B1
Second: B2
The koff of the first is 2.5-fold lower: 0.00038 s⁻¹ for the first, 0.00095 s⁻¹ for the second.

B3 gave a koff of 0.0032 s⁻¹.

Going from B5 to B6, the kon falls from 150000 M⁻¹ s⁻¹ to 55000 M⁻¹ s⁻¹ (2.7-fold).

B1 and B2 are within 1.5-fold of each other in kon: 880000 M⁻¹ s⁻¹ for the first, 610000 M⁻¹ s⁻¹ for the second.

B3 was tested, and the kon was 230000 M⁻¹ s⁻¹.

With B8 the Kd was 3.5 nM and 6.5 nM.
With B4 the Kd was 9.4 nM and 6.2 nM.

For B8, the koff was 0.00028 s⁻¹ and 0.00051 s⁻¹.
For B4, the koff was 0.00077 s⁻¹ and 0.00049 s⁻¹.

With B8 the kon was 80000 M⁻¹ s⁻¹ and 79000 M⁻¹ s⁻¹.
With B4 the kon was 82000 M⁻¹ s⁻¹ and 79000 M⁻¹ s⁻¹.

Molecular target: T3, rhCD73 bound to his-tag magnet beads (human, UniProt P21589 27-547, limits assumed)
T3 sequence: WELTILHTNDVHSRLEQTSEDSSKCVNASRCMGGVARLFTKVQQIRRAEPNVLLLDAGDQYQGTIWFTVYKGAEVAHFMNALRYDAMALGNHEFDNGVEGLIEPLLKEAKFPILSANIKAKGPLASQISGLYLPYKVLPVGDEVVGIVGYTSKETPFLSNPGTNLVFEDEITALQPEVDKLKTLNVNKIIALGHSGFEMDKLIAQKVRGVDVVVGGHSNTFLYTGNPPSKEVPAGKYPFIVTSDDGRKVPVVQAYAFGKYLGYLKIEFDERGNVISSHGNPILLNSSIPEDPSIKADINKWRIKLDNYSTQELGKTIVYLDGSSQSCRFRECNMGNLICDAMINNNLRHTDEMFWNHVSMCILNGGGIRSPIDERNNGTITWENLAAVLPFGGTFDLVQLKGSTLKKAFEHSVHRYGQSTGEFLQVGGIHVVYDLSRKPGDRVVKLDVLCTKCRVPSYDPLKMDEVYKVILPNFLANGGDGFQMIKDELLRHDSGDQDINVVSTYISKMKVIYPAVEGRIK
Experiment: cell-based or functional assay

Compared with B5, B6 is 1.8-fold lower in “EC50 (nM), inhibition of bead-bound human CD73 enzymatic activity” value: 5.76 nM for the first, 3.12 nM for the second.

Compared with B1, B2 is 2.4-fold higher in “EC50 (nM), inhibition of bead-bound human CD73 enzymatic activity” value: 2.86 nM for the first, 6.94 nM for the second.

B3 and B4 are within 1.5-fold of each other in “EC50 (nM), inhibition of bead-bound human CD73 enzymatic activity” value: 4.18 nM for the first, 5.31 nM for the second.

Molecular target: T1, human CD73 on cells
Experiment: cell-based or functional assay
Remark: another data set of the same source

First: B5
Second: B6
The “EC50 Calu6 inhibition” value of the first is 3.7-fold higher: 8.1 nM for the first, 2.21 nM for the second.

For B1, the “EC50 Calu6 inhibition” value was 0.95 nM.

Going from B5 to B1, the “EC50 H292 inhibition” value falls from 13.5 nM to 1.31 nM (10-fold).

First: B5
Second: B1
The “EC50 SKMEL24 inhibition” value of the first is 30-fold higher: 110 nM for the first, 3.72 nM for the second.
